The subject of this data set is Bacillus subtilis DB104 (SP-AmyQ fusion secretion). The data set is described as follows: AmyQ secretion efficiency, weighted average sort bin (1 = best secretion, 10 = worst) (bin number (weighted average, 1-10)); higher = lower secretion efficiency. In short, it runs like this:
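B. subtilis DB104 library expressing mature AmyQ fused to designed signal peptides (amyE-integrated) was encapsulated at about 0.3 cells per ~65 nL alginate bead with fluorescein-starch, grown about 13 h at room temperature and nile red stained. Occupied beads were sorted by large-particle flow cytometry into 10 equally populated bins by green/red fluorescence ratio, and each bin's amplicons were Illumina-sequenced. Secretion score is the read-frequency-weighted average bin number, normalised to beads per bin, excluding low-abundance sequences.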

The sequence MKKWKYRRRVVLVLSIAGIGGFSVHAASS returned an AmyQ secretion efficiency of 7.42.

For MRPVFPLILSAVLFLSCFFGARQTEKSASKR, the AmyQ secretion efficiency came to 6.8.

The sequence MKSKWMSGLLLVAVGFSFTQVMTSFFTPASPVHAGET showed an AmyQ secretion efficiency of 6.76.

For MKRFSTAYLLLGILCSAAVFLIGAPSRCLGAEV, the AmyQ secretion efficiency came to 3.15.

The sequence MRPVFPLILSAVLFLSCFFGARQTENSASKR showed an AmyQ secretion efficiency of 6.14.

As for MMGIMIFLTSFMLLAMTGQTALAKDV, the AmyQ secretion efficiency was 3.75.

Sequence MRSYIKVLTMCFLGLPTALADNS displayed an AmyQ secretion efficiency of 3.96.

For MKLKKRVSMYTQALTMCGGLFVTPAKAVKT, the AmyQ secretion efficiency was determined as 5.95.

MKKVLMAFIICLSLILSTISSVLAAPPSGAKAESV had an AmyQ secretion efficiency of 2.8.

The sequence MGMKKKLSLGVASAALGLALVGGGTWNAFN showed an AmyQ secretion efficiency of 6.68.

MRSKKLWISLLFALTLIFVMAFGNMTAQAAGK came in with an AmyQ secretion efficiency of 1.9.

In the case of MTSAFILSAAAAVGLFTFGGVQQASAKEL, the AmyQ secretion efficiency came to 2.86.

MPIKKKVMMCSKVTLVFGSMSFPTLTNSGGFKE gave an AmyQ secretion efficiency of 7.22.

In turn, MKVPKTMLLSTAAGLLLSLTATSASAHYV had an AmyQ secretion efficiency of 5.6.

In turn, MLKRTSFVSSLFISSAVLLSILTPDGQAHAQSA had an AmyQ secretion efficiency of 1.39.

For MTKAFLVFLSVVLVTTVFLVKQQESVAQAKQL, the AmyQ secretion efficiency was determined as 5.72.

Take MKRLLVSLRVWMVFLMNWVTPDRKTRAAAVY: the AmyQ secretion efficiency is 6.54.

For MKRLFMKASLVLFAVVFVFAVKGAPAKADEE, the AmyQ secretion efficiency is 2.81.

In the case of MNFKKTITTSSSVVSALSISALALSVSGVASAHEI, the AmyQ secretion efficiency amounted to 4.04.

As to MYNRKRRVCFLAALIMAFTLPNSVYAQKP, the AmyQ secretion efficiency was 2.73.

For MLCVMMLLFSAIASFPVSAQVKDQ, the AmyQ secretion efficiency amounted to 5.88.

MKRFSTAYLLLGILCSAAVFLIGAPSRTLGAEV showed an AmyQ secretion efficiency of 3.24.

Regarding MKLRKVLTGSVLSLGLLPPSSPAFATSP, the AmyQ secretion efficiency was found to be 1.49.

In turn, MFMLTMNNMAIIIAIIAAVIVIAALITFNVRNASPG came in with an AmyQ secretion efficiency of 6.62.

With MKSKGSIMACLILFLFMIFTFINTETISAFSN, the AmyQ secretion efficiency is 5.32.

For MRKKLKWLSFLLGFIILLFLFTLTILKYQFSNNDS, the AmyQ secretion efficiency worked out at 7.28.

MKTLRSRCYKGILSGVIFFGLKIDAKDI gave an AmyQ secretion efficiency of 6.82.

On to MKLKKRVSMFLVALTMCGGLFVTPAKAVST, for which the AmyQ secretion efficiency was found to be 2.23.

With MKKQIITATTAVVLGSTLFAGAASTQSI, the AmyQ secretion efficiency was found to be 2.06.

As for MRKRRKRGIQAFAGGIILATAVLAAVFYLTDEDQAAAV, the AmyQ secretion efficiency is 6.73.

MKKWLKKKRKKAIAIVLFMYTKGEAKAAGM registered an AmyQ secretion efficiency of 7.14.

MKKWMAGLFLAAAVLLCLMVPQQTTGTSGSVIQGASS registered an AmyQ secretion efficiency of 4.56.

For the sequence MAIIIAIIAAVIVIAALITFIVIVIRNASPG, the AmyQ secretion efficiency was 6.93.

In turn, MKSKWMSRKLLVAVGFSFTQVMVHAGET showed an AmyQ secretion efficiency of 6.44.

In turn, MTKKAWFLPLVCVLLISGWLAPAASRSAQTT showed an AmyQ secretion efficiency of 5.9.

MKRILLSSALSFGMLISAVPALAAGT gave an AmyQ secretion efficiency of 2.79.

MPYLKRVLLLLVTGLFMSLFIFLIVISAVTATASAQTG displayed an AmyQ secretion efficiency of 1.25.

In turn, MHLIRAAGAVCLAVVLIAGCRFNEDQHQPEGENT registered an AmyQ secretion efficiency of 5.35.

For MRNLTKTSLLLAGLCTAAQMVFVTHASAASK, the AmyQ secretion efficiency was 1.6.

In the case of MPIKKKVMMCLAVTLVFGSMSFPTLTNKGGFKE, the AmyQ secretion efficiency came out at 7.01.

In turn, MKLAKRVSALTPSTTLAITFKAKEL had an AmyQ secretion efficiency of 6.49.

The sequence MTMLRKIIGWILLLCIIPLFAFTVIASQKEV displayed an AmyQ secretion efficiency of 6.87.

MKLSVKIAGVLTVAAAAMTAKMYDTAKGN returned an AmyQ secretion efficiency of 4.44.

In turn, MTMLRKIIGWILLLCIIPLFAFTVIASSKEV displayed an AmyQ secretion efficiency of 6.98.

Consider MKKIMIFLTSFMLLAMTGQTALAKDV, for which the AmyQ secretion efficiency was determined as 3.4.

For the sequence MPYLKRVLLLLVTGLFMSLFAVTATSSAQTG, the AmyQ secretion efficiency worked out at 1.26.

In turn, MKRLLSTLLIGIMLLTFAPSMFAKQD returned an AmyQ secretion efficiency of 2.35.

In the case of MKKIGLLFMLCLAALRRRKRKRQQADAAEA, the AmyQ secretion efficiency is 6.59.

In turn, MFNRLFRVCFLAALIMAFTLPNSVYDQKP yielded an AmyQ secretion efficiency of 6.94.

In the case of MKKIWIGMLAAAVLLLMVPKVDLADAA, the AmyQ secretion efficiency was 4.2.

Sequence MKNMSCKLVVSVTLFFSFLGGGPLAHAQNS returned an AmyQ secretion efficiency of 1.53.

Regarding MRMLWRSLALCGLALTLAPCAQWAEP, the AmyQ secretion efficiency was 5.9.

As for MKRLCLWFTVFSLFLVLLPGKALGAVD, the AmyQ secretion efficiency turned out to be 3.84.

Regarding MPIKKKVMMCLAVTLVFGSMSFPTLTNEGGFKE, the AmyQ secretion efficiency was determined as 4.78.

In turn, MKQGKFSVKKRKLLMLTLVVAPKEKAEAASS gave an AmyQ secretion efficiency of 8.14.

As for MPSCKQLIVCSLAAILLLIPSVSFAADS, the AmyQ secretion efficiency stood at 3.5.

Sequence MSRITINIITMFIAAAVISLTGTAEAAEK gave an AmyQ secretion efficiency of 2.45.

On to MRNLTKTSLLLAGLCTAAQMVFVTHASAAPS, for which the AmyQ secretion efficiency stood at 1.69.

Turning to MKLSVKIAGVLTVAAAAMTAKMYATAADD, the AmyQ secretion efficiency was 6.81.

Sequence MSSMTCKLVVSVTLFFSFLTIGPLAHAQNS returned an AmyQ secretion efficiency of 1.57.

Turning to MSVCQKSIVRFLVSLIIGTFVISVPFMANAQSD, the AmyQ secretion efficiency was found to be 1.68.

For the sequence MKLWMRKTLVVLFTIVTFGLVSPPAALMMDKP, the AmyQ secretion efficiency amounted to 2.97.

On to MKWMCKKCCKKVLLAGGAAQAEAV, for which the AmyQ secretion efficiency worked out at 7.14.

As for MKKIKKRKFMFGLVMGFSQFQPSTVFAADK, the AmyQ secretion efficiency amounted to 7.57.

Sequence MLCVMMLLFSAIASFPVSAQSKDQ had an AmyQ secretion efficiency of 5.6.

MNKKYFVLIVCIIFTSALFPTRRRVTAAQG gave an AmyQ secretion efficiency of 3.61.

MKLWMRKTLVVLFTIVTFGLVSPPAALMYDKP had an AmyQ secretion efficiency of 3.73.

Take MKRKSCKLVVSVTLFFSFLTIGPLAHAQNS: the AmyQ secretion efficiency turned out to be 1.46.

MKKLLAAGIIGLLTVSIASPSFEAEK yielded an AmyQ secretion efficiency of 6.63.

Consider MLKKKWMVGLLAGCLAAGGFSYNAFWTEN, for which the AmyQ secretion efficiency amounted to 6.56.

Turning to MKKLLAAGIIGLLTVSIASPMFAAEK, the AmyQ secretion efficiency was found to be 3.35.

On to MKLRKVLTGSVLSLGLLDDEEDDAFATSP, for which the AmyQ secretion efficiency turned out to be 7.86.

Take MIAYFGKCLLLVTIMFLGVLFGMQQMNHG: the AmyQ secretion efficiency turned out to be 5.05.

MKRLLVSLRVWMVFLMNWVTPDRKTAAADED returned an AmyQ secretion efficiency of 6.67.

MAIIIAIIAAVIVIAALITFNVRNGSPG came in with an AmyQ secretion efficiency of 7.66.

Sequence MKRTWNGCGQGQLSVLLVAGSVPFHAEAKKP yielded an AmyQ secretion efficiency of 2.05.

MKKLLAAGIIGLLTVSIASPSFVAEK registered an AmyQ secretion efficiency of 6.79.

Sequence MNKLKRLSMLTVMIASVFIFSSHVLAAQY yielded an AmyQ secretion efficiency of 2.99.

Sequence MKKKVKIAGVLTVAAAAMTAKMYATAKGN displayed an AmyQ secretion efficiency of 6.8.

In turn, MKKKNSISSLNMLAAGLTASAIVGTTLVVTPAEAATI returned an AmyQ secretion efficiency of 2.17.

The sequence MNKLKRLSMLTVMIASVFIFSSHSLAAQY yielded an AmyQ secretion efficiency of 2.4.

As for MKSKGSIMACLILFSFTITTFINTETPSAFSN, the AmyQ secretion efficiency is 5.71.

In the case of MRNLTKTSLLLAGLCTAAQMVFVTHWSAEES, the AmyQ secretion efficiency is 8.27.

For MKKRFSLIMMTGLLFGLTKRKKKKAFAAEK, the AmyQ secretion efficiency was found to be 7.34.

Regarding MKRTWNRCGSSYKTYYLVAGSVPFHAEAKKP, the AmyQ secretion efficiency came to 6.5.

Sequence MKLRKSTKYQSYSLGLLVSASPAFATSP showed an AmyQ secretion efficiency of 6.69.

MKKLLAAGIIGLLTVTLVFLVVLLSIASPSFAAEK gave an AmyQ secretion efficiency of 2.43.

In turn, MRHKIITFILAVVVIIIIGNMIGGGGGSEAEDD returned an AmyQ secretion efficiency of 6.34.

Sequence MKKWLIIAVSLAIAIVLFMYTKGEAKAAED displayed an AmyQ secretion efficiency of 2.66.

Consider MMIKQCVICLSLLVFGTEEDAHAEET, for which the AmyQ secretion efficiency worked out at 3.44.

Sequence MKRMIVRMTLPLLIVCLAFSSFSASTRAASE displayed an AmyQ secretion efficiency of 2.26.

The sequence MKRMIVRMKRPSLIVCLAFSSFSASARAASE gave an AmyQ secretion efficiency of 6.12.

In turn, MRMLWRGQKSCGTYLTLAPCAQAAEP displayed an AmyQ secretion efficiency of 7.51.

Take MKSKGSIMKCQILFSFTITTFINTETISAFSN: the AmyQ secretion efficiency was 6.89.

For MFKFKKNGKSRRTAALMSISLFSATASAAST, the AmyQ secretion efficiency was 4.18.

Sequence MKLKKRVSMFLVALLMCLLLFVSTPAKAVKT showed an AmyQ secretion efficiency of 4.33.

Sequence MKKAFILSAAAAVGLFTFEEDEDEASAKEL displayed an AmyQ secretion efficiency of 4.76.

MKKEGKQYSRLCLSLSPLVSTNEVFAATT came in with an AmyQ secretion efficiency of 7.68.

Sequence MRIKQCVICLSLLVFGTTAAHAEET showed an AmyQ secretion efficiency of 2.98.

Take MKVPKTMLLSTAAGLLLSLDPTSVSAHYV: the AmyQ secretion efficiency worked out at 3.57.

The sequence MRGKSAVLLSLIMLIAGFLIYFSFQM returned an AmyQ secretion efficiency of 8.11.

The sequence MKVLLSALLLLLFALVALSFEPSASGKKL came in with an AmyQ secretion efficiency of 3.74.

In turn, MRNLTKTSLLLAGLCTAAQMVFVTHASLEES came in with an AmyQ secretion efficiency of 3.72.

For MKLSVKIAGVLTVAAAAMTAKMYKTAKGN, the AmyQ secretion efficiency is 7.2.

Turning to MTTKFTALAVFLLCFMPAAKIEHTQASLL, the AmyQ secretion efficiency amounted to 4.17.

As for MKNMSCKLVVSVTLFFSFLGIFVLAHAQNS, the AmyQ secretion efficiency stood at 4.32.

As for MRSYIKVRRRCRRRLILFVPTALADNS, the AmyQ secretion efficiency worked out at 6.04.

The sequence MLKKIARRKCKKRVGSLLFFTAPASAHVS displayed an AmyQ secretion efficiency of 7.33.

The values above are taken from the supplement of paper PMC9942255.
